Assay results as given in patent publication US20120093805A1.

Experiments:
[1] = target: cynomolgus CD27 (C-terminal His tag) with normal O-linked sugar chains expressed on CHO/DG44 cells (cynomolgus); assay: flow cytometry (FCM) on cynomolgus CD27/DG44 cells; number printed beside the broken bar
[2] = target: human sugar chain-deficient CD27 expressed on Lec8 cells (human) (UniProt P26842); assay: flow cytometry (FCM) on CD27/Lec8-4 cells [A) (b]
[3] = target: human CD27 with normal O-linked sugar chains expressed on CHO/DG44 cells (human) (UniProt P26842); assay: flow cytometry (FCM) on CD27/DG44-4 cells [B) (b]
Chain of human CD27 with normal O-linked sugar chains expressed on CHO/DG44 cells (human) (P26842 20-260 H233R limits assumed): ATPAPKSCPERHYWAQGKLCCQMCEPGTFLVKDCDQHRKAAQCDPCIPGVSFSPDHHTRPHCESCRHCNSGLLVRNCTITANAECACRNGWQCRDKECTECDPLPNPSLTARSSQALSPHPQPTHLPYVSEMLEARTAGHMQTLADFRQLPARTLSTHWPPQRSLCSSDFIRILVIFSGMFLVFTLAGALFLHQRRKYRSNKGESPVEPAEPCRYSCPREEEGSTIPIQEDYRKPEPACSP

Chain of human sugar chain-deficient CD27 expressed on Lec8 cells (human) (P26842 20-260 H233R limits assumed): as above

Mean Fluorescence Intensity [1]: 133
EC50 (read off the curve) [2]: 0.1 µg/mL
EC50 (read off the curve) [3]: 0.1 µg/mL
Substance: Anti-CD27 Antibody (O323)
